Source: the DeepSol protein solubility set

Assay: soluble on expression in E. coli; label from the status in PepcDB or PDB records

GPGSMLRRTLRRLMPSDAIGSVHPDVLWGYQQGQYAGPGWANFVKSLPLETLAMQGGSTMANLNDRAGTFLDPEDPRHPLALMQFGIMGKMDGTFHQLAYGDFGRVPKGSRLMQVLYENYLEPFSMNRVCAQLYFYQKVPNNYHASVDATAEYVGQTASLVGQVVVGLGACIMEGVTIRADTNCVYIAEGVQILENTCIMSDAPTDLLAYQRHELLNPYQQWDGMDGVTRIMPNTIIESNCYLDGCSIGSFNRIGHNTKIMKGVTTGIMVHIMPGSVVTADTKIGDGELWGGAPACKIGEVSKFEYKRPYYASLLHRESVAESYRNMSRYGDQFVHYMNAMGQLETLMIHYEDHVTPGIKAKVRDFEEGREPFHHTITRIAQGWSPANRPDDKNFAMAPPAPGVKLFAEHNTDSSPSEWNGSYANITNIFNDFRW
soluble on expression in E. coli: not soluble

MQEKYNFGKVSSQHKNYSKIETMLRPKGFDKLDHYFRTELDIDLTDETIELLLNSVKAAFGKLFYGAEQRARWNGRDFIALADLNITKALEEHIKNFQKIEQDMGVDELLEYIAFIPPVEMNVGEDLKSEYRNIMGGLLLMHADVIKKATGERKPSREAMEFVAQIVDKVF
soluble on expression in E. coli: soluble

MPENYTPAAAATGTWTEEEIRHQPRAWIRSLTNIDALRSALNNFLEPLLRKENLRIILTGAGTSAFIGDIIAPWLASHTGKNFSAVPTTDLVTNPMDYLNPAHPLLLISFGRSGNSPESVAAVELANQFVPECYHLPITCNEAGALYQNAINSDNAFALLMPAETHDRGFAMTSSITTMMASCLAVFAPETINSQTFRDVADRCQAILTSLGDFSEGVFGYAPWKRIVYLGSGGLQGAARESALKVLELTAGKLAAFYDSPTGFRHGPKSLVDDETLVVVFVSSHPYTRQYDLDLLAELRRDNQAMRVIAIAAESSDIVAAGPHIILPPSRHFIDVEQAFCFLMYAQTFALMQSLHMGNTPDTPSASGTVNRVVQGVIIHPWQA
soluble on expression in E. coli: soluble

MFVMEKVLFPFSAVVDEDDLKMALILNAIDQRIGGVLIMGPKGVAKSTIARSLTDLLPDIDVVKDCPFKCDPHDPSSMCDECIKKYRDGTIVSEKRKIPFVNMPVTATLDRVVGSLDIKRAIDEGLRALQPGLLAEANRGIIYIDEVNLLDDSVVDSILDSAASGINVVEREGVSVTHPARFILIGTMNPEEGDLRPQLKDRFGLSVTAVQPSDPEELIEISNRVEEFDRDPEAFRRKYEKIQNEIRNRIMRARSLLPSVVIDEDLKRFIAEVVIKLQAGNRAMITAVKASKAIAAFNGRDRVNIDDVKEALNLVLKHRVKDSAMIRGTIEKESRDLSTRSVEAGPHSGYEEGSESSGRRDMKAGNGKDEEKDVEVSAAFDEESNRSGRTGNADIFRILDQNRPGDHFDYRASLVNMIMNGRRRMKYEDLAFVSSRSRASIPVILAVDASRSMETMHRIALARGIARSFLHSAYRMRVKLSYITFYGTESHLMVEPTRNLDLIDREISRTVPQGKTPIPAALKMMYDISSRYRQRTVSIMITDGRANVPLGNDVTHDVREWSAKLGTRSDLFLISSTMGSERFMPSYNEDICRYSGGQLIEMDGNGHIALYSGYRRY
soluble on expression in E. coli: soluble

MMSTPPQNTRPVFSVDGLWKVFGPKAERVPADPELAALSAAELSERTGCTAAVRDVSFDVHKGEVFVVMGLSGSGKSTLVRCLTRLIEPTAGTIAIDGEDVRAMDRTRLRELRRHRASMVFQHFGLLPHRTVLDNVAYGLEIQGLGKAERRERAAEVVAKVGLEGMEQRKPGQLSGGQQQRVGLARALAVDPEVLLFDEPFSALDPLIRRDMQEEVVRLHREEGRTMVFITHDLNEALRLGDRIALMRDGRVVQLGTPEEIVGSPADDYVREFVRDVPREQVMTVRTAMRAASAEEAGSGPAVAPDATVSEAIEAVARAGSPARVVDSGRCVGVVDSEALLDVVAGVGASGPAPAVTAVPPFEPSRDFGNAGAGAAEAAPGDVTGEEVALEHHHHHH
soluble on expression in E. coli: soluble

MLPLIYHSIYSRLELPEGHRYPIMKYQYLYEEVRRDVQAEWVQFFEPQALSIEAIKRVHDADYVDLLAQGNMPAAKMRRIGFPWSEALITRTLTSAAG
soluble on expression in E. coli: not soluble

MSLIRPQLDDIQTAQAQEKNLLNEFREKQSKLRNLQQYQHQLEEMRASFNQQLTQLPKESEIPGLVEDINMTGVNSGLKFKNIRLENEVKQEFFIEQPISIEATGDYHAFGAFVSGIAALPRIVTLHDFVIEAKQSKEKTDIPEVDYAVKAKTYRYIGVDEQGNASAVQANTSTTTPAQGGTPEGHHHHHH
soluble on expression in E. coli: soluble
